In patent US9327008B2, “Cell-permeant peptide-based inhibitor of kinases” (Purdue Research Foundation, priority 2008, dated 2016):

Columns and labels:
Type in all cases: biochemical
[1] = molecular target: T1, CaMKI (Homo sapiens, UniProt Q14012); test: Millipore radiometric kinase activity assay, CaMKI (h); settings: for CaMK1 Kinase Activity: peptide inhibitor 300 μM, SD of 2 samples
T1 construct: purchased Millipore (assay service)
Procedure: (§1) A commercial radiometric assay service (Millipore, Billerica, Mass.) was used to test the specificity and potency of peptides containing a coupled transduction domain and therapeutic domain, hereinafter “complete peptides”). In these assays, if the kinase is not inhibited by an inhibitor peptide, a positively charged substrate is phosphorylated with a radiolabeled phosphate group from an ATP.
(§2) In a final reaction volume of 25 μL, CaMKI (h) (5-10 mU) is incubated with 8 mM MOPS pH 7.0, 0.2 mM EDTA, 0.5 mM CaCl2, 16 μg/mL calmodulin, 250 μM […] [SEQ ID NO: 52], 10 mM MgAcetate and [γ-^33P-ATP] (specific activity approx. 500 cpm/pmol, concentration as required). The reaction is initiated by the addition of the MgATP mix. After incubation for 40 minutes at room temperature, the reaction is stopped by the addition of 5 μL of a 3% phosphoric acid solution. 10 μL of the reaction is then spotted onto a P30 filtermat and washed three times for 5 minutes in 75 mM phosphoric acid and once in methanol prior to drying and scintillation counting.
(§3) IC50 values for inhibitor peptides were determined using Millipore's IC50Profiler Express service. The IC50 value was estimated from a 10-point curve of one-half log dilutions. For peptides tested for specificity, the concentration of the peptides that inhibited approximately 95% of MK2 activity was chosen to profile against a battery of kinases related to MK2, cell viability, or human disease from MilliporeKinaseProfiler service. In both assays, compounds were supplied in dimethylsulfoxide (DMSO). Every kinase activity measurement was conducted in duplicate.
(§4) Therapeutic inhibitor peptides were assayed for activity against human kinases related to MK2, cell viability, or human disease. The assays were performed using concentrations of therapeutic inhibitor peptides that yielded 2% to 8% of normal MK2 activity. Error is reported as the standard deviation between 2 samples, and “c” is rat AMPK whereas all other kinases used are human kinases.
(§5) Additional therapeutic inhibitor peptide variants were assayed for activity against several human kinases representative of several families of kinases. These kinases included: MK2; MK3; CaMKI (calcium/calmodulin-dependent protein kinase); PRAK (p38 regulated/activated protein kinase, also known as mitogen-activated protein kinase activated protein kinase 5 (MAPKAPK5)); SAPK2a (p38α); IRAK4 (IL-1 receptor (IL-1R)-associated kinase); MLCK (myosin light chain kinase); PKBβ (protein kinase B); PCKδ (protein kinase C); and ROCK-I (Rho-associated serine/threonine kinase).

[2] = molecular target: T2, IRAK4 (Homo sapiens, UniProt Q9NWZ3); test: Millipore radiometric kinase activity assay, IRAK4 (h)
T2 construct: purchased Millipore (assay service)
T2 sequence (Q9NWZ3 1-460): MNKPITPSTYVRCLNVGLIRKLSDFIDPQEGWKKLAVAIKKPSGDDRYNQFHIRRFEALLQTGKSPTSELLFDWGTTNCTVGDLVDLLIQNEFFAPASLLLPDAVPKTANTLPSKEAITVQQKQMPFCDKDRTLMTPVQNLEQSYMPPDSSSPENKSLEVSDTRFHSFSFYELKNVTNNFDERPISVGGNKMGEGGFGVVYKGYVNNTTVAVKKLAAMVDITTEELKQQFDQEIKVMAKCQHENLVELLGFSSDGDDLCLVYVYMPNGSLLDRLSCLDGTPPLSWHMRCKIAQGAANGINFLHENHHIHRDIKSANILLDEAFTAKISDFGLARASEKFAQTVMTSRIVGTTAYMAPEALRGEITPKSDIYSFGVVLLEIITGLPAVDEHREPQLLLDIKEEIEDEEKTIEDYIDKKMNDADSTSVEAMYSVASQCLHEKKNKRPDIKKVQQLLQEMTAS
Procedure: as §1
In a final reaction volume of 25 μL, IRAK4 (h) (5-10 mU) is incubated with 8 mM MOPS pH 7.0, 0.2 mM EDTA, 0.33 mg/mL myelin basic protein, 10 mM MgAcetate and [γ-^33P-ATP] (specific activity approx. 500 cpm/pmol, concentration as required). The reaction is initiated by the addition of the MgATP mix. After incubation for 40 minutes at room temperature, the reaction is stopped by the addition of 5 μL of a 3% phosphoric acid solution. 10 μl of the reaction is then spotted onto a P30 filtermat and washed three times for 5 minutes in 75 mM phosphoric acid and once in methanol prior to drying and scintillation counting.
as §3, §4, §5

[3] = molecular target: T3, PKCδ (Homo sapiens, UniProt Q05655); test: Millipore radiometric kinase activity assay, PKCδ (h); settings: for PKCδ Kinase Activity: peptide inhibitor 300 μM, SD of 2 samples
T3 construct: purchased Millipore (radiometric assay service)
T3 sequence (Q05655 whole entry): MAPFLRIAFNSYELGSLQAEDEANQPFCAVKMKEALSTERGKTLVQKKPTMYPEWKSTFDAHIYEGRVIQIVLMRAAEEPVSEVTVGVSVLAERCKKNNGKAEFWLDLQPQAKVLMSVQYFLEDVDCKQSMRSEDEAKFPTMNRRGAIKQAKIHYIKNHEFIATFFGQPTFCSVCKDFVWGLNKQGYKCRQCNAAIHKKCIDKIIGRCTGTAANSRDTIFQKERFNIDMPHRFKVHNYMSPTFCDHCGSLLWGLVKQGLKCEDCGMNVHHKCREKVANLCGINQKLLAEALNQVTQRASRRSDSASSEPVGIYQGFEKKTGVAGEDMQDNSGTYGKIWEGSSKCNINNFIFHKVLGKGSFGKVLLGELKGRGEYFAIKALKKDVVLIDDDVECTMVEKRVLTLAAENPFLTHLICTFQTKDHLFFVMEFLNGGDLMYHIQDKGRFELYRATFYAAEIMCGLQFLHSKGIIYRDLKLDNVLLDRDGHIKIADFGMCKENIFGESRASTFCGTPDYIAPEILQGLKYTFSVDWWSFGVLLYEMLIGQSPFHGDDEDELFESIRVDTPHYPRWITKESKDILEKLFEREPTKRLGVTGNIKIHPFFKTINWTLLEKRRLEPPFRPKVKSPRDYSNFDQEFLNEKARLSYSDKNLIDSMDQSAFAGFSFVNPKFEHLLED
Procedure: as §1
as §2, with “PKCδ” for “CaMKI”, “20” for “8”, “HEPES” for “MOPS”, “7.4, 0.03% Triton X-100, 0.1 mg/mL phosphatidylserine, 10” for “7.0, 0.2 mM EDTA, 0.5 mM CaCl2, 16”, “diacylglycerol, 50” for “calmodulin, 250”, “61],” for “52],”
as §3, §4, §5

[4] = molecular target: T4, ROCK-I (Homo sapiens, UniProt Q13464); test: Millipore radiometric kinase activity assay, ROCK-I (h); settings: for ROCK-1 Kinase Activity: peptide inhibitor 300 μM, SD of 2 samples
T4 construct: purchased Millipore (radiometric assay service)
T4 sequence (Q13464 whole entry): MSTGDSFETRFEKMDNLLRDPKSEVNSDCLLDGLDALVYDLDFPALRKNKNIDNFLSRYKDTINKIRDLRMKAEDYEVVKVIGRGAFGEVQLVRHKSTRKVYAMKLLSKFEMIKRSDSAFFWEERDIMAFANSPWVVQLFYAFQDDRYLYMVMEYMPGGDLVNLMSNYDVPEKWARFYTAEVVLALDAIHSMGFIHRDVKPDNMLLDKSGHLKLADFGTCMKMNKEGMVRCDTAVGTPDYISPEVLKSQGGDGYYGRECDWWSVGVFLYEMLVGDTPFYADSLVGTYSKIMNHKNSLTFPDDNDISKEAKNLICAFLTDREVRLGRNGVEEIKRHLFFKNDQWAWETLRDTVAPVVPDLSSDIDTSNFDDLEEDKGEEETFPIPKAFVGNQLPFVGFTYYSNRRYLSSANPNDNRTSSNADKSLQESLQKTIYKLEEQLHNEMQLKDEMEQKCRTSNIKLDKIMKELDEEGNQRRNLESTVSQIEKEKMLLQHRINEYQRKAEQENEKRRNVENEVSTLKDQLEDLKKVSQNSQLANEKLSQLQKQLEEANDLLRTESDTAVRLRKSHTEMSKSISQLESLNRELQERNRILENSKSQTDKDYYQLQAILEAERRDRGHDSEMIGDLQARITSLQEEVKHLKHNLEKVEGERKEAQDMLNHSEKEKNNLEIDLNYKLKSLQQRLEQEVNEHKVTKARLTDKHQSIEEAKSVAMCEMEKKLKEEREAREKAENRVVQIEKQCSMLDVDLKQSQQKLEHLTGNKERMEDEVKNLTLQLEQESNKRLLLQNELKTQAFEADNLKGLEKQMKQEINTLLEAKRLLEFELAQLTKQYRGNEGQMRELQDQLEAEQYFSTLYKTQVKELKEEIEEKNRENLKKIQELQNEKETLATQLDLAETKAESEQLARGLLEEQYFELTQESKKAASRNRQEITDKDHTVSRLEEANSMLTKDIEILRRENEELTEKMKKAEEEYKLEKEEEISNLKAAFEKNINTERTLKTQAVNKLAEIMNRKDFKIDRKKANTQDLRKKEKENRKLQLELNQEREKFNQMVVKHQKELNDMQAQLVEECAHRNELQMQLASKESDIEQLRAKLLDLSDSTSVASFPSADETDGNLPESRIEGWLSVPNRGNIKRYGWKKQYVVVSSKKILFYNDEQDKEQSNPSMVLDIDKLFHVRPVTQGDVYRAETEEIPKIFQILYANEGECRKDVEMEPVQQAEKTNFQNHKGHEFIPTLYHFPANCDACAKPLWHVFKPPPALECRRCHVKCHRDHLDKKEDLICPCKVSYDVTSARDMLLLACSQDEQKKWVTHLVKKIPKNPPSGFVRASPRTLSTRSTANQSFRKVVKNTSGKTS
Procedure: as §1
as §2, with “ROCK-I (b)” for “CaMKI (h)”, “30” for “0.5 mM CaCl2, 16 μg/mL calmodulin, 250”, “63],” for “52],”
as §3, §4, §5

[5] = peptide 100 μM, listed as KAFAKLAARLYRLARQLGVAA
[6] = peptide 30 μM, listed as WLRRIKAWLRRI-

Sequence	CaMKI Kinase Activity (%) (+SD %) ([1]; peptide 100 μM)	IRAK4 Kinase Activity (%) (+SD %) ([2]; peptide 100 μM)	PKCδ Kinase Activity (%) (+SD %) ([3]; peptide 100 μM)	ROCK-1 Kinase Activity (%) (+SD %) ([4]; peptide 100 μM)	CaMK1 Kinase Activity [1]	PKCδ Kinase Activity [3]	ROCK-1 Kinase Activity [4]	also measured
FAKLAARLYRKALARQLGVAA	0(2) %	13(4) %	40(2) %	25(2) %	–	–	–	–
KAFAKLAARLYRKALARQLGVAA	0 (2) %	16 (2) %	24 (3) %	29 (0) %	–	–	–	CaMKI Kinase Activity (%) (+SD %) [1, 5]: 0(2) %; IRAK4 Kinase Activity (%) (+SD %) [2, 5]: 16(2) %; PKCδ Kinase Activity (%) (+SD %) [3, 5]: 24(3) %; ROCK-1 Kinase Activity (%) (+SD %) [4, 5]: 29(0) %
WLRRIKAWLRRIKALNRQLGVAA	0 (2) %	13 (4) %	40 (2) %	25 (2) %	–	–	–	CaMKI Kinase Activity (%) (+SD %) ([1]; peptide 30 μM): 9(1) %; CaMKI Kinase Activity (%) (+SD %) [1, 6]: 9 (1) %; IRAK4 Kinase Activity (%) (+SD %) ([2]; peptide 30 μM): 12(1) %; IRAK4 Kinase Activity (%) (+SD %) [2, 6]: 12 (1) %; PKCδ Kinase Activity (%) (+SD %) ([3]; peptide 30 μM): 11(0) %; PKCδ Kinase Activity (%) (+SD %) [3, 6]: 11 (0) %; ROCK-1 Kinase Activity (%) (+SD %) ([4]; peptide 30 μM): 0(1) %; ROCK-1 Kinase Activity (%) (+SD %) [4, 6]: 0 (1) %
YARAAARQARAKALARQLGVAA	–	–	–	–	2(0) %	101(3) %	27(4) %	–
YARAAARQARAKALNRQLGVAA	–	–	–	–	8(1) %	105(2) %	95(7) %	IRAK4 Kinase Activity ([2]; peptide inhibitor 300 μM, SD of 2 samples): 68(3) %
